Measurements from US20240344138A1, “TARGETED THERAPIES IN CANCER” (Feng Biosciences, Inc, priority 2021, published 2024).

Key:
Format in all cases: in vivo, human
[1] = tested on: locally advanced or metastatic gastric cancer; assay: First-line clinical trial of chemotherapy, immune checkpoint inhibitor and bavituximab, outcome by TME phenotype
Experimental: A clinical trial is run to determine whether locally advanced or metastatic gastric cancer tumor microenvironment phenotypes correlate to clinical responses when patients are treated with chemotherapy, an immune checkpoint inhibitor, and Bavituximab in the first-line setting. The analysis includes samples from 120 patients across 2 treatment arms (60 patients in each arm). Patients are randomized to receive either (i) chemotherapy and an immune checkpoint inhibitor, or (ii) chemotherapy, an immune checkpoint inhibitor, and bavituximab. RNA gene signatures are analyzed from tumor samples acquired before any treatments and TME phenotypes are determined. Patients are followed for clinical response, progression-free survival, and overall survival.
Gastric cancer patients are randomized to receiving a regimen of chemotherapy (i.e. capecitabine, 5-FU, cisplatin etc.) plus an immune checkpoint inhibitor (anti-PD-(L)1—i.e., an inhibitor to PD-1 or PD-L1) therapy, or a regimen of chemotherapy/immune checkpoint inhibitor/Bavituximab. The combination of chemotherapy/immune checkpoint inhibitor/Bavituximab increases overall response rate (ORR), 6 month progression-free survival (PFS) and overall survival (OS) patients with advanced gastric cancer compared to the regimen of chemotherapy/immune checkpoint inhibitor alone as shown in TABLE 23. […] One hundred and twenty (120) patients are enrolled, 60 in each of the treatment groups with equal representation across the 4 stromal phenotypes (15 in each phenotype per treatment group). The correlation between each TME phenotype is tested against clinical outcome data. In immune active (IA) and immune suppressed (IS) patients the use of the regimen of chemotherapy/immune checkpoint inhibitor/Bavituximab confers benefit in comparison to patients classified to angiogenic (A) and immune desert (ID) TME phenotype classes as shown in the TABLE 24.

[2] = tested on: metastatic gliomas and glioblastoma; assay: Clinical trial of radiation, bavituximab and a checkpoint inhibitor, best objective response versus TME biomarker status
Experimental: A clinical trial is run to treat metastatic gliomas and glioblastoma with a combination of radiation, the anti-phosphatidylserine (anti-PS) targeting antibody bavituximab, and a checkpoint inhibitor (CPI), such as a PD-(L)1, e.g. pembrolizumab or nivolumab. Tumor tissue samples from surgical resections of glioblastoma are RNA sequenced and TME phenotypes are determined. Patients are followed for ORR.

[3] = tested on: advanced metastatic hepatocellular carcinoma; assay: Single arm phase 2 first-line trial of bavituximab and immune checkpoint inhibitor, outcome by TME phenotype
Experimental: (§1) A single arm phase 2 clinical trial is run to determine whether advanced metastatic hepatocellular carcinoma tumor microenvironment phenotypes correlate to clinical responses when patients are treated with Bavituximab and an immune checkpoint inhibitor in the first-line setting. The analysis includes samples from 28 patients. RNA gene signatures are analyzed from tumor samples acquired before any treatments and TME phenotypes are determined. Patients are followed for clinical response, progression-free survival, and overall survival.
(§2) Hepatocellular carcinoma patients receive a regimen of Bavituximab plus an immune checkpoint inhibitor (anti-PD-(L)1—i.e., an inhibitor to PD-1 or PD-L1) therapy. […] Twenty-eight (28) patients are enrolled, with equal representation across the 4 stromal phenotypes (7 in each phenotype). The correlation between each TME phenotype is tested against clinical outcome data. In patients that are biomarker positive, represented by immune active (IA) and immune suppressed (IS) phenotypes, the use of the regimen of Bavituximab/immune checkpoint inhibitor confers benefit in comparison to patients classified as biomarker negative, comprised of angiogenic (A) and immune desert (ID) TME phenotype classes, as shown in the TABLE 31.

[4] = tested on: recurrent/metastatic squamous carcinoma of head and neck (HNSCC); assay: Single arm phase 2 trial of bavituximab and immune checkpoint inhibitor after progression on an immune checkpoint inhibitor, outcome by TME phenotype
Experimental: as §1, with “recurrent/metastatic squamous” for “advanced metastatic hepatocellular”, “carcinoma of head and neck (HNSCC)” for “carcinoma”, “following progression on an immune checkpoint inhibitor (e.g., nivolumab, pembrolizumab, durvalumab, atezolizumab, etc.).” for “in the first-line setting.”
as §2, with “HNSCC” for “Hepatocellular carcinoma”, “In” for “In patients that are”, “positive patients,” for “positive,”, “32.” for “31.”

B1: Chemo/Immune Checkpoint Inhibitor/Bavituximab: regimen of chemotherapy, immune checkpoint inhibitor and bavituximab (antibody, chains of the INN, looked up, V domains shown)
VH: EVQLQQSGPELEKPGASVKLSCKASGYSFTGYNMNWVKQSHGKSLEWIGHIDPYYGDTSYNQKFRGKATLTVDKSSSTAYMQLKSLTSEDSAVYYCVKGGYYGHWYFDVWGAGTTVTVSS
VL: DIQMTQSPSSLSASLGERVSLTCRASQDIGSSLNWLQQGPDGTIKRLIYATSSLDSGVPKRFSGSRSGSDYSLTISSLESEDFVDYYCLQYVSSPPTFGAGTKLELK
modifications: with chemotherapy and checkpoint inhibitor
[1]; A (n = 15)
  6 Month PFS (%): 46.7%
  ORR (%): 46.7%
  OS (months): 8.2 months
[1]; IA (n = 15)
  6 Month PFS (%): 80.0%
  ORR (%): 73.3%
  OS (months): 20.2 months
[1]; ID (n = 15)
  6 Month PFS (%): 60.0%
  ORR (%): 53.3%
  OS (months): 11.8 months
[1]; IS (n = 15)
  6 Month PFS (%): 73.3%
  ORR (%): 66.7%
  OS (months): 19.8 months
[1]; whole treatment group (n = 60)
  6 Month PFS (%): 65%
  ORR (%): 60%
  OS (months): 15 months

B2: bavituximab, checkpoint inhibitor, and radiation (antibody, chains of the INN, looked up, V domains shown)
VH: B1 VH
VL: B1 VL
modifications: with checkpoint inhibitor and radiation
[2]; TME A
  Best Objective Response CR, number of patients: 0
  Best Objective Response PD, number of patients: 4
  Best Objective Response PR, number of patients: 1
  Best Objective Response SD, number of patients: 1
[2]; TME IA
  Best Objective Response CR, number of patients: 0
  Best Objective Response PD, number of patients: 4
  Best Objective Response PR, number of patients: 3
  Best Objective Response SD, number of patients: 2
[2]; TME ID
  Best Objective Response CR, number of patients: 0
  Best Objective Response PD, number of patients: 6
  Best Objective Response PR, number of patients: 1
  Best Objective Response SD, number of patients: 1
[2]; TME IS
  Best Objective Response CR, number of patients: 0
  Best Objective Response PD, number of patients: 4
  Best Objective Response PR, number of patients: 4
  Best Objective Response SD, number of patients: 4

B3: Bavituximab plus immune checkpoint inhibitor (antibody, chains of the INN, looked up, V domains shown)
VH: B1 VH
VL: B1 VL
modifications: plus immune checkpoint inhibitor
[3]; Biomarker Negative (n = 14)
  6-month progression free survival (PFS) rate: 35.7%
  Overall response rate (ORR): 14%
  overall survival (OS): 16.2 months
[3]; Biomarker Positive (n = 14)
  6-month progression free survival (PFS) rate: 78.6%
  Overall response rate (ORR): 50%
  overall survival (OS): 23.8 months
[3]; TME phenotype A (n = 7)
  6-month progression free survival (PFS) rate: 42.8%
  Overall response rate (ORR): 14%
  overall survival (OS): 16.7 months
[3]; TME phenotype IA (n = 7)
  6-month progression free survival (PFS) rate: 71.4%
  Overall response rate (ORR): 43%
  overall survival (OS): 22.4 months
[3]; TME phenotype ID (n = 7)
  6-month progression free survival (PFS) rate: 28.6%
  Overall response rate (ORR): 14%
  overall survival (OS): 15.7 months
[3]; TME phenotype IS (n = 7)
  6-month progression free survival (PFS) rate: 85.7%
  Overall response rate (ORR): 57%
  overall survival (OS): 25.2 months
[4]; Biomarker Negative (n = 14)
  Overall response rate (ORR): 14.3%
  overall survival (OS): 7.8 months
  progression free survival (PFS): 2.5 months
[4]; Biomarker Positive (n = 14)
  Overall response rate (ORR): 36.4%
  overall survival (OS): 11.2 months
  progression free survival (PFS): 5.5 months
[4]; TME phenotype A (n = 7)
  Overall response rate (ORR): 14.3%
  overall survival (OS): 8.6 months
  progression free survival (PFS): 2.6 months
[4]; TME phenotype IA (n = 7)
  Overall response rate (ORR): 28.6%
  overall survival (OS): 11.0 months
  progression free survival (PFS): 5.3 months
[4]; TME phenotype ID (n = 7)
  Overall response rate (ORR): 14.3%
  overall survival (OS): 7.0 months
  progression free survival (PFS): 2.4 months
[4]; TME phenotype IS (n = 7)
  Overall response rate (ORR): 42.9%
  overall survival (OS): 11.4 months
  progression free survival (PFS): 5.7 months
